Experimental data taken from patent publication US6083711, “Proteases compositions capable of binding to said site, and methods of use thereof” (SmithKline Beecham Corporation, dated 2000).

B1: HSV-1 protease (enzyme)
chain: MAADAPGDRMEEPLPDRAVPIYVAGFLALYDSGDSGELALDPDTVRAALPPDNPLPINVNHRAGCEVGRVLAVVDDPRGPFFVGLIACVQLERVLETAASAAIFERRGPPLSREERLLYLITNYLPSVSLATKRLGGEAHPDRTLFAHVALCAIGRRLGTIVTYDTGLDAAIAPFRHLSPASREGARRLAAEAELALSGRTWAPGVEALTHTLLSTAVNNMMLRDRWSLVAERRRQAGIAGHTYLQA
B2: unliganded HSV-2 protease (enzyme)
chain: MASAEMRERLEAPLPDRAVPIYVAGFLALYDSGDPGELALDPDTVRAALPPENPLPINVNHRARCEVGRVLAVVNDPRGPFFVGLIACVQLERVLETAASAAIFERRGPALSREERLLYLITNYLPSVSLSTKRRGDEVPPDRTLFAHVALCAIGRRLGTIVTYDTSLDAAIAPFRHLDPATREGVRREAAEAELALAGRTWAPGVEALTHTLLSTAVNNMMLRDRWSLVAERRRQAGIAGHTYLQA
B3: CMV A143V protease (enzyme)
chain: MTMDEQQSQAVAPVYVGGFLARYDQSPDEAELLLPRDVVEHWLHAQGQGQPSLSVALPLNINHDDTAVVGHVAAMQSVRDGLFCLGCVTSPRFLEIVRRASEKSELVSRGPVSPLQPDKVVEFLSGSYAGLSLSSRRCDDVEVATSLSGSETTPFKHVALCSVGRRRGTLAVYGRDPEWVTQRFPDLTAADRDGLRAQWQRCGSTAVDASGDPFRSDSYGLLGNSVDALYIRERLPKLRYDKQLVGVTERESYVKA
B4: protease from delta9 LQAS-12aa ext H6(C) VZV (enzyme)
chain: MEALYVAGLYALYSKDEGELNITPEIVRSALPPTSKIPINIDHRKDCVVGEVIAIIEDIRGPFFLGIVRCPQLHAVLFEAAHSNFFGNRDSVLSPLERALYLVTNYLPSVSLSSKRLSPNEIPDGNFFTHVALCVVGRRVGTVVNYDCTPESSIEPFRVLSMESKARLLSLVKDYAGLNKVWKVSEDKLAKVLLSTAVNNMLLRDRWDVVAKRRREAGIMGHVYLQA

Molecular target: the molecule itself
Assay: crystal structure, homodimer
B1: binds. B2: binds. B3: binds. B4: binds.
